Experimental data published in PMC7217667.

T1: OsMYB80 (rice, UniProt Q7XQN1 1-372)
T1 sequence: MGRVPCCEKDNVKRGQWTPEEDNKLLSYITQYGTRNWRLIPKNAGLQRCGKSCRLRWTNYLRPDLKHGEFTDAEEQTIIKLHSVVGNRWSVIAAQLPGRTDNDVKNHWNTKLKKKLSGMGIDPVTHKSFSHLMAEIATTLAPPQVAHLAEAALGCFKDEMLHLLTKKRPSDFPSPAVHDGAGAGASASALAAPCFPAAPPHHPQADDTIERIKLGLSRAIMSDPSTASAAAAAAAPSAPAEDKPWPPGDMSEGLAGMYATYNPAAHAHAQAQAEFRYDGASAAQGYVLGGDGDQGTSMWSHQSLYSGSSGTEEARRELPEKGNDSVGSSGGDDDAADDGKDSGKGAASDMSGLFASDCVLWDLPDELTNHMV

B1: LOC_Os04g51990 promoter probe (dsDNA)
DNA 1: CTGCAGGAAATGGAAAACCATCTTATAGAAG
DNA 2: CTTCTATAAGATGGTTTTCCATTTCCTGCAG
B2: LOC_Os03g35920 promoter probe (dsDNA)
DNA 1: GATCTGCATTTGTTAGTTCACCAGCAC
DNA 2: GTGCTGGTGAACTAACAAATGCAGATC
B3: LOC_Os01g50750 promoter probe (dsDNA)
DNA 1: CACCTAAACAAAACCAAACACAAGC
DNA 2: GCTTGTGTTTGGTTTTGTTTAGGTG
B4: LOC_Os07g40830 promoter probe (dsDNA)
DNA 1: CACGCATTCAGGAAACCAGAAGGATC
DNA 2: GATCCTTCTGGTTTCCTGAATGCGTG
B5: OsMYB80 promoter OsMYB80-2 probe (dsDNA)
DNA 1: ACTCATAGCCTGCTATGTTCACAAGGTTTTATATTACTGA
DNA 2: TCAGTAATATAAAACCTTGTGAACATAGCAGGCTATGAGT
B6: LOC_Os01g04080 promoter probe (dsDNA)
DNA 1: CCAAATAAACGAGAAAACGGCAAAGGCATATGTCATTCAC
DNA 2: GTGAATGACATATGCCTTTGCCGTTTTCTCGTTTATTTGG
B7: LOC_Os09g36730 promoter probe (dsDNA)
DNA 1: ACCTCACTTTACACCTACCTTGAAGGTT
DNA 2: AACCTTCAAGGTAGGTGTAAAGTGAGGT
B8: LOC_Os08g38810 promoter probe (dsDNA)
DNA 1: CCTGGTCAGTCCTGTTGCACGGCTATATG
DNA 2: CATATAGCCGTGCAACAGGACTGACCAGG
B9: LOC_Os08g20200 promoter probe (dsDNA)
DNA 1: TAAGCCAGCTACAACTGACCAACTC
DNA 2: GAGTTGGTCAGTTGTAGCTGGCTTA
B10: LOC_Os06g11135 promoter probe (dsDNA)
DNA 1: TCTACCCTCACCAACCACGCTCCCA
DNA 2: TGGGAGCGTGGTTGGTGAGGGTAGA
B11: OsMYB80 promoter OsMYB80-1 probe (dsDNA)
DNA 1: TGAACCTAAGGCTGTAAATTTGTTCGGACAAAGGATCATT
DNA 2: AATGATCCTTTGTCCGAACAAATTTACAGCCTTAGGTTCA
B12: LOC_Os01g27170 promoter probe (dsDNA)
DNA 1: CCATCAAAATATATTGACTGTTGGATTTAATG
DNA 2: CATTAAATCCAACAGTCAATATATTTTGATGG

Target: T1, OsMYB80
Test: EMSA

Binder | binding result
B1 | binds
B2 | binds
B3 | binds
B4 | binds
B5 | binds
B6 | binds
B7 | binds
B8 | binds
B9 | binds
B10 | binds
B11 | binds
B12 | binds
